In patent US20130136748A1 (Ablynx, published 2013):
Numbering of substitutions follows the chain as printed. In names and notes the source's numbering stands. Several values for one entry are separate records, joined by “and”; a condition that tells them apart may be missing. Equal entries are not always repeated. Where two headings read alike, the source gives them in different places.

Experiments:
human HER1 [1] = molecular target: T1, human HER1 (human, UniProt P00533 25-1210); assay: FACS CHO-HER1, 5 µg/ml
T1 construct: also called EGFR; ErbB1

human HER2 [2] = molecular target: T2, human HER2 (human, UniProt P04626 23-1255); assay: FACS CHO-HER2, 5 µg/ml
T2 construct: also called hHER2

human HER4 [3] = molecular target: T3, human HER4 (human, UniProt Q15303 26-1308); assay: FACS CHO-HER4, 5 µg/ml
T3 sequence (Q15303 26-1308 limits assumed): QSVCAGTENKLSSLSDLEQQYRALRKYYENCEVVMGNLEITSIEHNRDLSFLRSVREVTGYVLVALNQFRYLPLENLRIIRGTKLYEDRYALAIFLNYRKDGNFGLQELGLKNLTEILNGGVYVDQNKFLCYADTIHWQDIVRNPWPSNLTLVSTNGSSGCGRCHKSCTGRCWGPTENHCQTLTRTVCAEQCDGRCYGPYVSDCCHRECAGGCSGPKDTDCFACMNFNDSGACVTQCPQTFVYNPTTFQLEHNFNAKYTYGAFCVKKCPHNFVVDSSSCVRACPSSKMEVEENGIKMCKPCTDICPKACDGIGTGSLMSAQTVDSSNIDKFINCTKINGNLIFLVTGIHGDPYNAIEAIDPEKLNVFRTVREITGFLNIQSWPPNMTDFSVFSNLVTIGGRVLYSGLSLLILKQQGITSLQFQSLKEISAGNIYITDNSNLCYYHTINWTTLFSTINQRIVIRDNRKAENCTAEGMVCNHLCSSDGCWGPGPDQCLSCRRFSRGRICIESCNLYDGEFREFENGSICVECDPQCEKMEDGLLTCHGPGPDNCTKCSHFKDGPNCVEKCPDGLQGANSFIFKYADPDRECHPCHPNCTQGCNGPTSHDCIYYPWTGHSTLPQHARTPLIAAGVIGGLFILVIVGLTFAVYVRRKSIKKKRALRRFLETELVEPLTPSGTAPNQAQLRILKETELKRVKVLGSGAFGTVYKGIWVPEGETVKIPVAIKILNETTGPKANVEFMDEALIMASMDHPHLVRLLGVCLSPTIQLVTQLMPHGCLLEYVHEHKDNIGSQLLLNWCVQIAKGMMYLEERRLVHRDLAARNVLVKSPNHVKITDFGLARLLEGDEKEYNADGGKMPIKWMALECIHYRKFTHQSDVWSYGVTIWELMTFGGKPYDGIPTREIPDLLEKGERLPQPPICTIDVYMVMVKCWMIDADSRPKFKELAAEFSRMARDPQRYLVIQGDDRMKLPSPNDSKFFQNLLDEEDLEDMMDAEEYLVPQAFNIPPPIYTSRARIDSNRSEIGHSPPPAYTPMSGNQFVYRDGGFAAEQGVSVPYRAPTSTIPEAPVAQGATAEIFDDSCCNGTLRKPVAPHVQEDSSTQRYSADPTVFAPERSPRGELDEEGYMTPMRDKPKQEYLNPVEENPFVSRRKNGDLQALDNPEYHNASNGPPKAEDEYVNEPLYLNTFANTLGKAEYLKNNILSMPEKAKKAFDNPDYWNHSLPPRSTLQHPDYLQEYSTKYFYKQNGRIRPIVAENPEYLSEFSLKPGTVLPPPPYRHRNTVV

human HER1 [4] = molecular target: T1, human HER1; assay: FACS, CHO-HER1
human HER2 [5] = molecular target: T2, human HER2; assay: FACS, CHO-HER2
human HER4 [6] = molecular target: T3, human HER4; assay: FACS, CHO-HER4
human HER1 [7] = molecular target: T1, human HER1; assay: FACS CHO-HER1, 222 nM
human HER1 [8] = molecular target: T1, human HER1; assay: FACS CHO-HER1, 667 nM
human HER2 [9] = molecular target: T2, human HER2; assay: FACS CHO-HER2, 222 nM
human HER2 [10] = molecular target: T2, human HER2; assay: FACS CHO-HER2, 667 nM
human HER4 [11] = molecular target: T3, human HER4; assay: FACS CHO-HER4, 222 nM
human HER4 [12] = molecular target: T3, human HER4; assay: FACS CHO-HER4, 667 nM
human HER1 [13] = molecular target: T1, human HER1; assay: FACS CHO-HER1, 2000 nM
human HER2 [14] = molecular target: T2, human HER2; assay: FACS CHO-HER2, 2000 nM
human HER4 [15] = molecular target: T3, human HER4; assay: FACS CHO-HER4, 2000 nM
hHER3 full length [16] = molecular target: T4, hHER3 full length (human, UniProt P21860 20-1342); assay: cell-based or functional assay
hHER3 full length [17] = molecular target: T4, hHER3 full length; assay: cell-based or functional assay; remark: listed apart in the source
[18] = molecular target: T5, hHER3 ECD (human HER3 extracellular domain) (human, UniProt P21860 20-643); assay: ELISA, coated hHER3-ECD
T5 construct: also called recombinant HER3-ECD

[19] = molecular target: T6, cHER3ECD (Maccaca fascicularis HER3 extracellular domain) (Macaca fascicularis, UniProt P21860 20-643 (human entry)); assay: ELISA, coated cHER3-ECD
T6 construct: also called cyno HER3ECD; cyno HER3-ECD
T6 chain: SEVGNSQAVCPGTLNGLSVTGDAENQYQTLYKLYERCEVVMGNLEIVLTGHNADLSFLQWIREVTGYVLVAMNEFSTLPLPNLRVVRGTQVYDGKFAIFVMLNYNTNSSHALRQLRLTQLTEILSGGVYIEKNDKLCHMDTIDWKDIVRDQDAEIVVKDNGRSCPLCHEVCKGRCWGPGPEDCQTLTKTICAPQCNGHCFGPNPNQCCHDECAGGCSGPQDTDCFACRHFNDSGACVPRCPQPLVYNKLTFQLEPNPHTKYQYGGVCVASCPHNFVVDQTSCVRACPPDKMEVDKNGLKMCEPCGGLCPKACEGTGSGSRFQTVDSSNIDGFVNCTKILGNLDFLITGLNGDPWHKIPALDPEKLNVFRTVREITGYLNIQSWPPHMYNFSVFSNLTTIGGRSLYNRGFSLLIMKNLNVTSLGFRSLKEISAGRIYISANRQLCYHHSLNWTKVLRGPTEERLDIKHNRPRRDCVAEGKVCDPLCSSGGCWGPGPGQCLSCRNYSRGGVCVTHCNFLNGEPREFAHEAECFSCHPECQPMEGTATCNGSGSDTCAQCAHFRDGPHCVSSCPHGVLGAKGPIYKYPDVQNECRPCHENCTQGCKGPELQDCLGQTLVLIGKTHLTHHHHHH

[20] = molecular target: T7, Chimeric chicken Her3-human domain 2 (AA207-328 human) (chicken/human chimera); assay: FACS, HEK293 with chimeric HER3
T7 construct: Transmembrane and extracellular regions, on HEK293 cells
T7 chain: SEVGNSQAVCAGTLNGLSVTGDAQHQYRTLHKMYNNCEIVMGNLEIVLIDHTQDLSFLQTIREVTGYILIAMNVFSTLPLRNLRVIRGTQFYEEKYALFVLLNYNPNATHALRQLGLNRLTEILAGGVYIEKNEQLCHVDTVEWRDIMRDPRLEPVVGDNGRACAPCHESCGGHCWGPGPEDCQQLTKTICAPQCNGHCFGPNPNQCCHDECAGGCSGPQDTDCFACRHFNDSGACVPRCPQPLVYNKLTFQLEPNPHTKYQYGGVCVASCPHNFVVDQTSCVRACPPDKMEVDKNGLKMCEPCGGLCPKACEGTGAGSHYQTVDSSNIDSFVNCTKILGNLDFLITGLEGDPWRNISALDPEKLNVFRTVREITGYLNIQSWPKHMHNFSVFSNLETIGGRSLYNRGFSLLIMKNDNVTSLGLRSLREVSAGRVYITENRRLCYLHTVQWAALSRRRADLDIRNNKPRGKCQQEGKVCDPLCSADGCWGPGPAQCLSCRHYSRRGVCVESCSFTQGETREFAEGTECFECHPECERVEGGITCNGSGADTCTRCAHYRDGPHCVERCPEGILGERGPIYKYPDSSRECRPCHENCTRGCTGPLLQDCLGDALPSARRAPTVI

[21] = molecular target: T8, human HER3-Fc (R&D Systems, 348-RB) (human, UniProt P21860 20-643); assay: SPR, HER3-Fc captured by anti-Fc
T8 construct: Bought; also called hHER3-Fc; Fc-HER3; Fc part of the bought chimera not given, not described

hHER3 full length [22] = molecular target: T4, hHER3 full length; assay: FACS, 400 nM, competitor 04C07-biotin
hHER3 full length [23] = molecular target: T4, hHER3 full length; assay: FACS, 400 nM, competitor 04F10-biotin
hHER3 full length [24] = molecular target: T4, hHER3 full length; assay: FACS, 400 nM, competitor 17C08-biotin
hHER3 full length [25] = molecular target: T4, hHER3 full length; assay: FACS, 400 nM, competitor 18E08-biotin
hHER3 full length [26] = molecular target: T4, hHER3 full length; assay: FACS, 400 nM, competitor 21B02-biotin
hHER3 full length [27] = molecular target: T4, hHER3 full length; assay: FACS, 400 nM, competitor 23F05-biotin
hHER3 full length [28] = molecular target: T4, hHER3 full length; assay: cell-based or functional assay; remark: listed apart in the source
hHER3 full length [29] = molecular target: T4, hHER3 full length; assay: cell-based or functional assay; remark: listed apart in the source
[30] = molecular target: T5, hHER3 ECD (human HER3 extracellular …); assay: SPR off rate on HER3-ECD
[31] = molecular target: T5, hHER3 ECD (human HER3 extracellular …); assay: SPR off rate on HER3-ECD; remark: listed apart in the source
[32] = molecular target: T8, human HER3-Fc (R&D Systems, 348-RB); assay: HRG competition alphascreen
[33] = molecular target: T8, human HER3-Fc (R&D Systems, 348-RB); assay: HRG competition alphascreen; remark: listed apart in the source
[34] = molecular target: T8, human HER3-Fc (R&D Systems, 348-RB); assay: HRG competition alphascreen; remark: listed apart in the source
hHER3 full length [35] = molecular target: T4, hHER3 full length; assay: FACS competition with HRG1-β1-EGF, CHO-HER3

Anti-HER4 pAb (R&D Systems AF1131) (antibody)
MCF (human HER1 [1]): 584
MCF (human HER2 [2]): 932
MCF (human HER4 [3]): 17000

Anti-HER2 pAb (R&D Systems AF1129) (antibody)
MCF (human HER1 [1]): 323
MCF (human HER2 [2]): 41000
MCF (human HER4 [3]): 578

Anti-HER1 pAb (R&D Systems AF231) (antibody)
MCF (human HER1 [1]): 28200
MCF (human HER2 [2]): 888
MCF (human HER4 [3]): 418

B1: 18E08 (VHH)
VHH: EVQLVESGGGLVQPGGSLRLSCAASGTLFKINAMGWYRQAPGKQRELVALITSSDTTDYAESVEGRFTISRDNTWNAVYLQMNSLKPEDTAVYYCHSDHYSMGVPEKRVIMYGQGTQVTVSS
binding result (human HER1 [4]): no binding (tested: 2000 nM)
binding result (human HER2 [5]): no binding (tested: 2000 nM)
binding result (human HER4 [6]): no binding (tested: 2000 nM)
MCF (human HER1 [7]): 61
MCF (human HER1 [8]): 62
MCF (human HER2 [9]): 53
MCF (human HER2 [10]): 52
MCF (human HER4 [11]): 91
MCF (human HER4 [12]): 80
MCF (human HER1 [13]): 64
MCF (human HER2 [14]): 78
MCF (human HER4 [15]): 115
IC50, HRG1-β1 induced pHER3, MCF-7 (hHER3 full length [16]): 6.39e-08 M
IC50, HRG1-β1 induced pHER3, MDA-MB468 (hHER3 full length [16]): 1.01e-07 M
IC50, HRG1-β1 induced pAkt, MCF-7 (hHER3 full length [17]): 5.69e-08 M
inhibition of HRG1-β1 induced pERK1/2, MCF-7 (hHER3 full length [17]): < 50 % inhibition
EC50 [18]: 4.7 nM
EC50 [19]: 4.4 nM
binding result [20]: binds
Kd [21]: 53.8 nM
kon [21]: 10400 M⁻¹ s⁻¹
% competition (hHER3 full length [22]): 0%
% competition (hHER3 full length [23]): 0%
% competition (hHER3 full length [24]): 63%
% competition (hHER3 full length [25]): 86%
% competition (hHER3 full length [26]): 4%
% competition (hHER3 full length [27]): 0%

B2: 17B05 (VHH)
VHH: EVQLVESGGGLVQPGGSLRLSCAASGSIGGLNAMAWYRQAPGKERELVAGIFGVGSTRYADSVKGRFTISRDIAKNTVFLQMNSLNSEDTAVYYCRMSSVTRGSSDYWGQGTQVTVSS
notes: also called HER3MS17B05; HER3MS017B05
binding result (human HER1 [4]): no binding (tested: 2000 nM)
binding result (human HER2 [5]): no binding (tested: 2000 nM)
binding result (human HER4 [6]): no binding (tested: 2000 nM)
MCF (human HER1 [7]): 85
MCF (human HER1 [8]): 64
MCF (human HER2 [9]): 84
MCF (human HER2 [10]): 86
MCF (human HER4 [11]): 142
MCF (human HER4 [12]): 90
MCF (human HER1 [13]): 49
MCF (human HER2 [14]): 134
MCF (human HER4 [15]): 116
IC50, HRG1-β1 induced pHER3, MCF-7 (hHER3 full length [16]): 5.34e-09 M
IC50, HRG1-β1 induced pHER3, MDA-MB468 (hHER3 full length [16]): 2.79e-08 M
IC50, HRG1-β1 induced pAkt, MCF-7 (hHER3 full length [17]): 7.83e-09 M
IC50, HRG1-β1 induced pERK1/2, MCF-7 (hHER3 full length [17]): 2.36e-09 M
IC50, EGF induced pHER3, CHO EGFR/HER3 (hHER3 full length [28]): 3.43e-10 M
IC50, TGFα induced pHER3, CHO EGFR/HER3 (hHER3 full length [28]): 8.15e-10 M
IC50, epiregulin induced pHER3, CHO EGFR/HER3 (hHER3 full length [28]): 2.48e-10 M
IC50 pHER3 blocking, HRG stimulated MCF7 (hHER3 full length [29]): 4.52e-09 M
EC50 [18]: 0.63 nM
EC50 [19]: 0.66 nM
koff [30]: 0.00018 s⁻¹ and 0.0002 s⁻¹
koff [31]: 0.00018 s⁻¹ and 0.0002 s⁻¹
% inhibition [32]: 87%
IC50 [32]: 0.755 nM
IC50 [33]: 0.34 nM and 0.93 nM
IC50 [34]: 0.78 nM
Kd [21]: 0.11 nM
kon [21]: 390000 M⁻¹ s⁻¹
% competition (hHER3 full length [22]): 100%
% competition (hHER3 full length [23]): 68%
% competition (hHER3 full length [24]): 0%
% competition (hHER3 full length [25]): 0%
% competition (hHER3 full length [26]): 0%
% competition (hHER3 full length [27]): 0%
IC50 (hHER3 full length [35]): 33.4 nM

B3: HER3MS00118 (VHH)
VHH: B2 VHH with I73N, A74S, F79Y, N86R, S87A, Q113L
notes: 17B05 second round, S84A; also called HER3MS0118
IC50 pHER3 blocking, HRG stimulated MCF7 (hHER3 full length [29]): 2.69e-09 M
koff [31]: 0.00018 s⁻¹
IC50 [34]: 0.6 nM

B4: HER3MS00119 (VHH)
VHH: B2 VHH with I73N, A74S, F79Y, N86R, S87P, Q113L
notes: 17B05 second round, S84P (final variant); also called HER3MS0119
IC50 pHER3 blocking, HRG stimulated MCF7 (hHER3 full length [29]): 1.7e-09 M
koff [31]: 0.00018 s⁻¹
IC50 [34]: 0.79 nM

B5: HER3MS00120 (VHH)
VHH: B2 VHH with E1D, I73N, A74S, F79Y, N86R, S87A, Q113L
notes: 17B05 second round, E1D, S84A; also called HER3MS0120
IC50 pHER3 blocking, HRG stimulated MCF7 (hHER3 full length [29]): 4.28e-09 M
koff [31]: 0.00019 s⁻¹
IC50 [34]: 0.75 nM

B6: HER3MS00121 (VHH)
VHH: B2 VHH with E1D, I73N, A74S, F79Y, N86R, S87P, Q113L
notes: 17B05 second round, E1D, S84P (final variant for N-terminal use); also called HER3MS0121
IC50 pHER3 blocking, HRG stimulated MCF7 (hHER3 full length [29]): 3.53e-09 M
koff [31]: 0.00018 s⁻¹
IC50 [34]: 0.55 nM
